What all share (test): filter
The target of one data set is IL-23 (Homo sapiens) (UniProt Q9NPF7+P29460). Particulars: approximately 500 nM or higher, DPBS, 0.1 mg/ml tRNA.
A further data set has as its system IgE (Homo sapiens). Particulars: 2'-OMe C,U; 2'-OH A,G; approximately 500 nM or higher.
In data set [1] the target is Complement C5 full length (Homo sapiens) (UniProt P01031+P01031). Particulars: dRmY: deoxy A,G, 2'-OMe C,U, plateau about 10%.
Another data set has as its target T1, IFN-gamma (Homo sapiens) (UniProt P01579).
T1 sequence: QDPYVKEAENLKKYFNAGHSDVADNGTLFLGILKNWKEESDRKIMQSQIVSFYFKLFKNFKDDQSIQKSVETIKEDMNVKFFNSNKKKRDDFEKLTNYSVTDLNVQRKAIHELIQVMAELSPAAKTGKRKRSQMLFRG
Particulars: dRmY: deoxy A,G, 2'-OMe C,U.

For another data set, the target named is PDGF-BB (Homo sapiens) (UniProt P01127). Particulars: 2'-OMe A,C,U; 2'-OH G; approximately 950 nM or higher; naive pool also binds PDGF-BB.
Sequence of PDGF-BB (Homo sapiens) (P01127 82-190): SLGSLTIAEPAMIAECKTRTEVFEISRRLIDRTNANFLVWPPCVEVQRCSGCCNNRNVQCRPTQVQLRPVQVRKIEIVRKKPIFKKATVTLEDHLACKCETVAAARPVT
[2] abbreviates: high salt selection (250 mM NaCl).

Sequence of IL-23 (Homo sapiens) (Q9NPF7 20-189, chain 1 of 2): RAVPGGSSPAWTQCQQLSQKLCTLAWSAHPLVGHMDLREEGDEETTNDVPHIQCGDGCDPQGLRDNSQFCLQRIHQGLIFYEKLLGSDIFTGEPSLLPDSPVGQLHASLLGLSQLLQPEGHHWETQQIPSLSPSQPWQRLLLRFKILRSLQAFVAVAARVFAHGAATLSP
Sequence of IL-23 (Homo sapiens) (P29460 23-328, chain 2 of 2): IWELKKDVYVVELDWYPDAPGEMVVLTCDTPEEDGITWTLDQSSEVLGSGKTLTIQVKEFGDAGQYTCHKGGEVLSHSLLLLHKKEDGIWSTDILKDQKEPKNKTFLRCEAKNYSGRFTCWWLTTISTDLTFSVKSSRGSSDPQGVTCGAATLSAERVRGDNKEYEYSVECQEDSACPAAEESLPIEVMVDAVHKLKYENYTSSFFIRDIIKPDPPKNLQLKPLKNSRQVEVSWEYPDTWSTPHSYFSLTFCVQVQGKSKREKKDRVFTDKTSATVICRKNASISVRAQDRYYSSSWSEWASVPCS
Sequence of Complement C5 full length (Homo sapiens) (P01031 19-673, chain 1 of 2): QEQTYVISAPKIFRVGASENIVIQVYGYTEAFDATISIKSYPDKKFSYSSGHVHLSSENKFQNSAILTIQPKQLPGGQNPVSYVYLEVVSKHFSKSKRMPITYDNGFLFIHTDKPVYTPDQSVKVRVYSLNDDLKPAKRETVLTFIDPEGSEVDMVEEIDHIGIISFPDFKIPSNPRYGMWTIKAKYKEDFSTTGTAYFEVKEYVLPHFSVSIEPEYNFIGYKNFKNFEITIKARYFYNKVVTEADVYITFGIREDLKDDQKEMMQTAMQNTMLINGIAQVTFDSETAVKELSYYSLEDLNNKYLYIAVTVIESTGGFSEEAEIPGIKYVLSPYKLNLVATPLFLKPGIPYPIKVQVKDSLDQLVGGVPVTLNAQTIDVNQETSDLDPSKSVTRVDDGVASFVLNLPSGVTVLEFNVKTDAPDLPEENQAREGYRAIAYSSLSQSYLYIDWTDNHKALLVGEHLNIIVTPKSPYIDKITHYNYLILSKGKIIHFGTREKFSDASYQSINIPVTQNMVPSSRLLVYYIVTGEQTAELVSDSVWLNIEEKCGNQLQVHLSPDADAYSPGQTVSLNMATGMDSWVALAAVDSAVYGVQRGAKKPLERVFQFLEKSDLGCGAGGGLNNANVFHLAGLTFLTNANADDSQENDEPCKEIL
Sequence of Complement C5 full length (Homo sapiens) (P01031 678-1676, chain 2 of 2): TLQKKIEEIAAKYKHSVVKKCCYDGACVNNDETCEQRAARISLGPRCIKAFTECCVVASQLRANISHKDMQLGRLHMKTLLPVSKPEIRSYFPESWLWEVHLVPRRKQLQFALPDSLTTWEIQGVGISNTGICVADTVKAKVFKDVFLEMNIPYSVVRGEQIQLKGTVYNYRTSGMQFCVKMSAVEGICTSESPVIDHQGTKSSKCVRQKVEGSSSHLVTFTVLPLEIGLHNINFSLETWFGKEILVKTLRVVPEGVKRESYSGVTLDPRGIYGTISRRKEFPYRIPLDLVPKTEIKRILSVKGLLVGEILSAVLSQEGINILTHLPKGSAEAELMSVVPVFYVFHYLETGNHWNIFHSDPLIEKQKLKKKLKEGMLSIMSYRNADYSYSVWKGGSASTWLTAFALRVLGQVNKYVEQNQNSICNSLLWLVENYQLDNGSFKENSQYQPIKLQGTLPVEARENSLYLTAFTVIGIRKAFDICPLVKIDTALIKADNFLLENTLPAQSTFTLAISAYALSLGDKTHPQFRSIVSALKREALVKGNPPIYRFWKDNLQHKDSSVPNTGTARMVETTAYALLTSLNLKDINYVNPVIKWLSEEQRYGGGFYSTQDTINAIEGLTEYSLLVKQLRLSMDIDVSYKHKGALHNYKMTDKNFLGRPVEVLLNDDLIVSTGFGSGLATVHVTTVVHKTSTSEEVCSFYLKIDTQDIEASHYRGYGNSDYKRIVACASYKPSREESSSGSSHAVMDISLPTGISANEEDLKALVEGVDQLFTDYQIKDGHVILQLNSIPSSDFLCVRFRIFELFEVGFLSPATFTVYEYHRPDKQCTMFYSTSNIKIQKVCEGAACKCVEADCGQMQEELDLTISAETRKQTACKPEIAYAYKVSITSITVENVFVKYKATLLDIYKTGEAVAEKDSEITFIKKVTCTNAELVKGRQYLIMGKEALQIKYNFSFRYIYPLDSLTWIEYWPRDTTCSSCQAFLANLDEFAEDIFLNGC

As usually defined, the Kd is the free concentration of one partner at which half of the binding sites on the other are occupied at equilibrium, for simple one-to-one binding. In turn, “GGGAGAGGAGAGAACGUUCUACNNNNNNNNNNNNNNNNNNNNNNNNNNNNNNCGCUGUCGAUCGAUCGAUCGAUG [IL-23 rRmY round 9 pool]” displayed a Kd with IL-23 (Homo sapiens) (2'-OMe C,U, 2'-OH A,G) of more than 500 nM.

Turning to “GGGAGAGGAGAGAACGUUCUACNNNNNNNNNNNNNNNNNNNNNNNNNNNNNNCGCUGUCGAUCGAUCGAUCGAUG [IgE rRmY round 6 pool]”, the Kd in the data set with IgE (Homo sapiens) is more than 500 nM.

For the sequence “GGGAGAGGAGAGAACGUUCUACNNNNNNNNNNNNNNNNNNNNNNNNNNNNNNGGUCGAUCGAUCGAUCAUCGAUG [C5 full-length selection round 10 dRmY pool]”, in data set [1] (1x DPBS, tRNA and salmon sperm DNA competitor), the Kd came to 115 nM.

With “GGGAGAGGAGAGAACGUUCUACNNNNNNNNNNNNNNNNNNNNNNNNNNNNNNGGUCGAUCGAUCGAUCAUCGAUG [C5 partially trypsinized selection round 10 dRmY pool]”, the Kd in data set [1] (selection on partially trypsinized C5) was determined as 150 nM.

As to “GGGAGAGGAGAGAACGUUCUACNNNNNNNNNNNNNNNNNNNNNNNNNNNNNNGGUCGAUCGAUCGAUCAUCGAUG [IFN-gamma round 10 dRmY pool, high salt]”, the Kd with IFN-gamma (Homo sapiens) (setting [2]) came out at 675 nM.

In the data set with IFN-gamma (Homo sapiens) (1x DPBS, tRNA, ssDNA, BSA), “GGGAGAGGAGAGAACGUUCUACNNNNNNNNNNNNNNNNNNNNNNNNNNNNNNGGUCGAUCGAUCGAUCAUCGAUG [IFN-gamma round 10 dRmY pool, normal stringency]” showed a Kd of 605 nM.

As for “GGGAGAGGAGAGAACGUUCUACNNNNNNNNNNNNNNNNNNNNNNNNNNNNNNGGUCGAUCGAUCGAUCAUCGAUG [IFN-gamma round 12 dRmY pool, high salt]”, the Kd in the data set with IFN-gamma (Homo sapiens) (setting [2]) was 590 nM.

With “GGGAGAGGAGAGAACGUUCUACNNNNNNNNNNNNNNNNNNNNNNNNNNNNNNGGUCGAUCGAUCGAUCAUCGAUG [IFN-gamma round 12 dRmY pool, normal stringency]”, in the data set with IFN-gamma (Homo sapiens) (1x DPBS, tRNA, ssDNA, BSA), the Kd stood at 445 nM.

For “GGGNGNGGNGNGNNCGUUCUNCNNNNNNNNNNNNNNNNNNNNNNNNNNNNNNCGCUGUCGNUCGNUCGNUCGNUG [IL-23 rGmH round 10 pool]”, in the data set with IL-23 (Homo sapiens) (2'-OMe A,C,U, 2'-OH G), the Kd was more than 500 nM.

Turning to “GGGNGNGGNGNGNNCGUUCUNCNNNNNNNNNNNNNNNNNNNNNNNNNNNNNNCGCUGUCGNUCGNUCGNUCGNUG [PDGF-BB rGmH round 10 pool]”, in the data set with PDGF-BB (Homo sapiens), the Kd was more than 950 nM.

(Values after patent US20050037394.)
